Values quoted from earlier work as cited in patent US9867860B2, “Formulations for preventing and treating decreasing platelet cell counts” (priority 2013, dated 2018).

Legend:
[1] = tested on: patients with ITP and liver disease; settings: for side effects: human, in vivo
[2] = tested on: refractory immune thrombocytopenia; settings: two cases; high-dose vitamin D supplementation and hydroxychloroquine in combination
[3] = tested on: thrombocytopenia; settings: Vitamin B12 and folate together, deficiency
[4] = tested on: thrombocytopenia associated with chemotherapy, HCV infection, or early liver cirrhosis
[5] = tested on: patients with solid tumors who had previously received platelet transfusion because of myelosuppression; settings: randomized, placebo-controlled trial
[6] = tested on: myelosuppressed mice

Molecule: CC1=NN(c2ccc(C)c(C)c2)C(=O)/C1=N\Nc1cccc(-c2cccc(C(=O)O)c2)c1O [Eltrombopag]
- side effects [1]: bone marrow fibrosis, thrombosis, and ocular toxicities

Molecule: CCN(CCO)CCCC(C)Nc1ccnc2cc(Cl)ccc12 (stereo not shown) [hydroxychloroquine, reference compound]
- treatment outcome of refractory immune thrombocytopenia [2]: successfully treated

Molecule: Romiplostim
- side effects [1]: bone marrow fibrosis, thrombosis, and ocular toxicities
- platelet count ([1]; patients with ITP and liver disease, continuous treatment): increase platelet count

Molecule: Vitamin B12
- correction of thrombocytopenia on repletion [3]: rapidly corrects

Molecule: vitamin D
- treatment outcome of refractory immune thrombocytopenia [2]: successfully treated

B1: IL-11: recombinant human IL-11, cytokine stimulating megakaryocyte maturation (protein, UniProt P20809 22-199, looked up)
Interleukin-11: PGPPPGPPRVSPDPRAELDSTVLLTRSLLADTRQLAAQLRDKFPADGDHNLDSLPTLAMSAGALGALQLPGVLTRLRADLLSYLRHVQWLRRAGGSSLKTLEPELGTLQARLDRLLRRLQLLMSRLALPQPPPDPPAPPLAPPSSAWGGIRAAHAILGGLHLTLDWAVRGLLLLKTRL
- other side effects ([4]; human, in vivo): dyspnea, atrial arrhythmias, syncope, and fatigue
- side effect: edema, share of patients ([4]; human, in vivo): more than 50 % of patients
- correction of thrombocytopenia ([4]; thrombocytopenia associated with chemotherapy, HCV infection, or early liver cirrhosis, in some degree): could correct thrombocytopenia
- reduction of the number of patients in need of platelet transfusions [5]: 26%
- platelet counts, IL-11 group versus peanut skins extract group ([6]; d7): significantly higher
- platelet counts versus control thrombocytopenia group ([6]; d7, subcutaneous): significantly improved
- platelet counts ([6]; d10, subcutaneous): further improved
